Substrate in this data set: C[C@]12CCC(=O)C=C1CCC1C2C(=O)C[C@@]2(C)C1CC[C@]2(O)C(=O)CO
Kind of data set: cells, lysate or membranes named.

The values that follow come from patent US20070244108A1.

For orientation: Km means the substrate concentration at which the rate is half of its maximum.

B1: human hepatic microsomal 11β HSD1 (Homo sapiens) (protein)
chain: MAFMKKYLLPILGLFMAYYYYSANEEFRPEMLQGKKVIVTGASKGIGREMAYHLAKMGAHVVVTARSKETLQKVVSHCLELGAASAHYIAGTMEDMTFAEQFVAQAGKLMGGLDMLILNHITNTSLNLFHDDIHHVRKSMEVNFLSYVVLTVAALPMLKQSNGSIVVVSSLAGKVAYPMVAAYSASKFALDGFFSSIRKEYSVSRVNVSITLCVLGLIDTETAMKAVSGIVHMQAAPKEECALEIIKGGALRQEEVYYDSSLWTTLLIRNPCRKILEFLYSTSYNMDRFINK
Regarding B1, for the setting “other: 10 μg microsomal protein, 30 min at 37° C., Buffer 1, TLC assay”, the Km was found to be 0.66 µM.

B2: Human 11β HSD1 (Homo sapiens) (protein)
chain: B1 chain
As to B2, the Michaelis constant (Km) (other: RIA detection, 10 μg/well microsomal protein, 30 min, buffer 3, 37.0 °C) worked out at 0.7 µM.
